For this assay, the target named is Csk (UniProt P41240). The assay is described as follows: anti-Flag co-IP, anti-Myc blot. The conditions noted are these: reference: Myc-Cbp wild type; sites Y317.

Take “Cbp (Csk binding protein, Cbp/PAG1) (from UniProt Q9NWQ8) Myc-Cbp Y317F”: the “binding against the reference” value is on record as “weaker”.

Source of the values: article PMC6531875.
